Reference: article PMC6075780, “Interaction of lipoprotein QseG with sensor kinase QseE in the periplasm controls the phosphorylation state of the two-component system QseE/QseF in Escherichia coli” (PLoS Genetics, 2018)
One block for each molecule: values may come before it.

Assays:
[1] = target: T18-QseE (pYG246); assay: BACTH assay (bacterial two-hybrid, β-galactosidase read-out), homodimerization; settings: reporter strain BTH101; plasmids pYG246/pYG199_TM1; parent: est. 3600; read off a plot
[2] = target: T1, QseG-Strep (E. coli K-12, UniProt P0AD44 26-237, Cys26 predicted by the paper to be lipidated); assay: cell-based or functional assay
T1 sequence (looked up): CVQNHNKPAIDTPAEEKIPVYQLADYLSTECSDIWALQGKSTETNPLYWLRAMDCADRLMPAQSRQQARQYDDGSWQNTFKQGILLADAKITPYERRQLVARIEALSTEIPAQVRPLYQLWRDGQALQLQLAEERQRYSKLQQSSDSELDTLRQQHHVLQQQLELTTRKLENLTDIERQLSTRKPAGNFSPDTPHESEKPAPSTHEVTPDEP

[3] = target: T1, QseG-Strep; assay: pull-down; bait and prey from two compatible plasmids in E. coli Z970 (1 mM IPTG, 0.2% arabinose, 3 h); cleared lysates with MagStrep type3 XT beads 60 min at 4°C, washed 4× with buffer W; Western blot; settings: partners not purified

Molecule: T25-QseE (from UniProt P52101) F19L; L21H; I22R; L23P; L24P
- response [1]: 1000 Miller units

- fold decrease in glmY'-lacZ β-galactosidase activity of the ΔqseE strain Z970 complemented with plasmid-encoded QseE-S58N (pYG221-S58N), against wild-type QseE (pYG221) [2]: 3 fold
- fold reduction of co-purifying protein against wild-type QseE-3×FLAG [3]: ~3 fold
B1: QseE-S58N-3×FLAG (natural protein, E. coli K-12, UniProt P52101 1-475, looked up)
chain: MKRWPVFPRSLRQLVMLAFLLILLPLLVLAWQAWQSLNALSDQAALVNRTTLIDARRNEAMTNAALEMERSYRQYCVLDDPTLAKVYQSQRKRYSEMLDAHAGVLPDDKLYQALRQDLHNLAQLQCNNSGPDAAAAARLEAFASANTEMVQATRTVVFSRGQQLQREIAERGQYFGWQSLVLFLVSLVMVLLFTRMIIGPVKNIERMINRLGEGRSLGNSVSFSGPSELRSVGQRILWLSERLSWLESQRHQFLRHLSHELKTPLASMREGTELLADQVVGPLTPEQKEVVSILDSSSRNLQKLIEQLLDYNRKQADSAVELENVELAPLVETVVSAHSLPARAKMMHTDVDLKATACLAEPMLLMSVLDNLYSNAVHYGAESGNICLRSSLHGARVYIDVINTGTPIPQEERAMIFEPFFQGSHQRKGAVKGSGLGLSIARDCIRRMQGELYLVDESGQDVCFRIELPSSKNTK
notes: Histidine kinase QseE of E. coli K-12 with the S58N exchange in the periplasmic loop; also called QseE-S58N variant; source: E. coli strain Z970, from plasmid pYG318-S58N, in lysate; not shown: 3×FLAG, C-terminal, kept
